The values below come from the supplement of paper PMC10567573.

B1: NEK8 (parent)
chain: VTIKHVACGDFFTACLTDRGIIMT
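Also: lentivirally expressed fusions sorted by FACS into six bins by GFP to DsRed ratio, PSI derived from sequencing read proportions per bin multiplied by bin number.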

This data set covers variants of B1. Description: protein stability index of a GFP-peptide fusion (GPS, HEK-293T) (PSI 1-6); higher = more stable. As to conditions: c terminus: a fixed tail appended.
Turning to VTIKHVACGDFFTACLVDRGIIMT [T17V], the protein stability index was found to be 3.2. For VTIKHVACGDFFTACLGDRGIIMT [T17G], the protein stability index was determined as 1.94. With VTIKHVACGDFFTACLKDRGIIMT [T17K], the protein stability index worked out at 4.32. For the variant VTIKHVACGDFFTACLCDRGIIMT [T17C], the protein stability index turned out to be 2.27.

VTIKHVACGDFFTACLIDRGIIMT [T17I]: the protein stability index turned out to be 4.6. Consider VTIKHVACGDFFTACLQDRGIIMT [T17Q], for which the protein stability index was determined as 3.69. Consider VTIKHVACGDFFTACLSDRGIIMT [T17S], for which the protein stability index is 3.16.

Turning to VTIKHVACGDFFTACLHDRGIIMT [T17H], the protein stability index worked out at 3.72. For VTIKHVACGDFFTACLLDRGIIMT [T17L], the protein stability index amounted to 3.17.

On to VTIKHVACGDFFTACLDDRGIIMT [T17D], for which the protein stability index was 2.27. As for VTIKHVACGDFFTACLFDRGIIMT [T17F], the protein stability index is 3.49. On to VTIKHVACGDFFTACLMDRGIIMT [T17M], for which the protein stability index came out at 3.48. Take VTIKHVACGDFFTACLPDRGIIMT [T17P]: the protein stability index stood at 2.64. The same measure for VTIKHVACGDFFTACLNDRGIIMT [T17N]: 4.51; for VTIKHVACGDFFTACLRDRGIIMT [T17R]: 3.53. In the case of VTIKHVACGDQFTACLTDRGIIMT [F11Q], the protein stability index was found to be 3.07.

On to VTIKHVACGDSFTACLTDRGIIMT [F11S], for which the protein stability index amounted to 2.05. For the variant VTIKHVACGDWFTACLTDRGIIMT [F11W], the protein stability index is 4.01. Take VTIKHVACGDVFTACLTDRGIIMT [F11V]: the protein stability index worked out at 2.76.

As for VTIKHVACGDHFTACLTDRGIIMT [F11H], the protein stability index turned out to be 1.88. For the variant VTIKHVACGDAFTACLTDRGIIMT [F11A], the protein stability index was determined as 2.49. Then VTIKHVACGDMFTACLTDRGIIMT [F11M], with 3.07; and VTIKHVACGDKFTACLTDRGIIMT [F11K], with 2.13; and VTIKHVACGDGFTACLTDRGIIMT [F11G], with 1.8. For VTIKHVACGDEFTACLTDRGIIMT [F11E], the protein stability index turned out to be 2.9. As for VTIKHVACGDTFTACLTDRGIIMT [F11T], the protein stability index stood at 2.82. Turning to VTIKHVACGDPFTACLTDRGIIMT [F11P], the protein stability index was found to be 3.05.

Turning to VTIKHVACGDDFTACLTDRGIIMT [F11D], the protein stability index amounted to 1.46.

Consider VTIKHVACGDIFTACLTDRGIIMT [F11I], for which the protein stability index is 4.45. The same measure for VTIKHVACGDCFTACLTDRGIIMT [F11C]: 1.91; for VTIKHVACGDYFTACLTDRGIIMT [F11Y]: 2.81.

Turning to VTIKHVACGDNFTACLTDRGIIMT [F11N], the protein stability index was 2.85.

On to VTIKHVACGDLFTACLTDRGIIMT [F11L], for which the protein stability index was 2.23. Take VTIKHVACGDFFVACLTDRGIIMT [T13V]: the protein stability index is 2.64. With VTIKHVACGDFFPACLTDRGIIMT [T13P], the protein stability index amounted to 3.32. On to VTIKHVACGDFFYACLTDRGIIMT [T13Y], for which the protein stability index came to 3.95. The same measure for VTIKHVACGDFFKACLTDRGIIMT [T13K]: 3.17; for VTIKHVACGDFFLACLTDRGIIMT [T13L]: 2.11; for VTIKHVACGDFFQACLTDRGIIMT [T13Q]: 2.47. With VTIKHVACGDFFDACLTDRGIIMT [T13D], the protein stability index amounted to 3.61. For the variant VTIKHVACGDFFCACLTDRGIIMT [T13C], the protein stability index came to 2.13. VTIKHVACGDFFNACLTDRGIIMT [T13N]: the protein stability index is 1.86. On to VTIKHVACGDFFFACLTDRGIIMT [T13F], for which the protein stability index worked out at 2.81. Then VTIKHVACGDFFHACLTDRGIIMT [T13H], with 3.07. As to VTIKHVACGDFFIACLTDRGIIMT [T13I], the protein stability index was found to be 1.31. The same measure for VTIKHVACGDFFSACLTDRGIIMT [T13S]: 1.28; for VTIKHVACGDFFMACLTDRGIIMT [T13M]: 2.39.

VTIKHVACGVFFTACLTDRGIIMT [D10V]: the protein stability index came to 2.91. With VTIKHVACGKFFTACLTDRGIIMT [D10K], the protein stability index was 3.54. On to VTIKHVACGRFFTACLTDRGIIMT [D10R], for which the protein stability index stood at 2.3. Take VTIKHVACGCFFTACLTDRGIIMT [D10C]: the protein stability index is 2.56.

In the case of VTIKHVACGTFFTACLTDRGIIMT [D10T], the protein stability index is 2.71. Take VTIKHVACGMFFTACLTDRGIIMT [D10M]: the protein stability index was determined as 3.29. On to VTIKHVACGWFFTACLTDRGIIMT [D10W], for which the protein stability index was found to be 2.4. As to VTIKHVACGLFFTACLTDRGIIMT [D10L], the protein stability index turned out to be 2.26. For the variant VTIKHVACGEFFTACLTDRGIIMT [D10E], the protein stability index turned out to be 3.23. For VTIKHVACGYFFTACLTDRGIIMT [D10Y], the protein stability index stood at 2.44.

Consider VTIKHVACGHFFTACLTDRGIIMT [D10H], for which the protein stability index came to 3.8. For VTIKHVACGNFFTACLTDRGIIMT [D10N], the protein stability index was 1.59. Turning to VTIKHVACGIFFTACLTDRGIIMT [D10I], the protein stability index was 3.11. As to VTIKHVACGDFGTACLTDRGIIMT [F12G], the protein stability index was found to be 2.17.

As for VTIKHVACGDFRTACLTDRGIIMT [F12R], the protein stability index was 2.21. VTIKHVACGDFETACLTDRGIIMT [F12E]: the protein stability index came out at 1.72. For the variant VTIKHVACGDFVTACLTDRGIIMT [F12V], the protein stability index is 2.77. The same measure for VTIKHVACGDFPTACLTDRGIIMT [F12P]: 1.8.

In the case of VTIKHVACGDFDTACLTDRGIIMT [F12D], the protein stability index was 2.2. Regarding VTIKHVACGDFMTACLTDRGIIMT [F12M], the protein stability index was 2.61. Then VTIKHVACGDFITACLTDRGIIMT [F12I], with 3.98. For the variant VTIKHVACGDFTTACLTDRGIIMT [F12T], the protein stability index was 3.71. Then VTIKHVACGDFCTACLTDRGIIMT [F12C], with 1.53; and VTIKHVACGDFWTACLTDRGIIMT [F12W], with 2.6; and VTIKHVACGDFYTACLTDRGIIMT [F12Y], with 2.02.

Regarding VTIKHVACGDFKTACLTDRGIIMT [F12K], the protein stability index worked out at 1.81. On to VTIKHVACGDFNTACLTDRGIIMT [F12N], for which the protein stability index amounted to 2.67. The same measure for VTIKHVACGDFSTACLTDRGIIMT [F12S]: 3.05; for VTIKHVACGDFLTACLTDRGIIMT [F12L]: 1.79. Regarding VTIKHVACGDFFTACRTDRGIIMT [L16R], the protein stability index is 2.33. Then VTIKHVACGDFFTACTTDRGIIMT [L16T], with 1.76; and VTIKHVACGDFFTACFTDRGIIMT [L16F], with 3.61; and VTIKHVACGDFFTACPTDRGIIMT [L16P], with 2.59. Regarding VTIKHVACGDFFTACETDRGIIMT [L16E], the protein stability index came to 1.89. As to VTIKHVACGDFFTACQTDRGIIMT [L16Q], the protein stability index came out at 3.06. With VTIKHVACGDFFTACCTDRGIIMT [L16C], the protein stability index amounted to 2.43. For VTIKHVACGDFFTACATDRGIIMT [L16A], the protein stability index came out at 4.14. On to VTIKHVACGDFFTACHTDRGIIMT [L16H], for which the protein stability index was 2.88.

Turning to VTIKHVACGDFFTACMTDRGIIMT [L16M], the protein stability index was determined as 2.15. Turning to VTIKHVACGDFFTACSTDRGIIMT [L16S], the protein stability index stood at 3.85. For the variant VTIKHVACGDFFTACDTDRGIIMT [L16D], the protein stability index stood at 1.91.

In the case of VTIKHVACGDFFTACYTDRGIIMT [L16Y], the protein stability index was 2.13. The same measure for VTIKHVACGDFFTACKTDRGIIMT [L16K]: 3.12. As for VTIKHVACGDFFTACITDRGIIMT [L16I], the protein stability index was found to be 2.3.

VTIKHVACGDFFTAWLTDRGIIMT [C15W]: the protein stability index was 3.09. Consider VTIKHVACGDFFTASLTDRGIIMT [C15S], for which the protein stability index was 3.9. For the variant VTIKHVACGDFFTAILTDRGIIMT [C15I], the protein stability index stood at 3.26.
